Measurements reported in the nanobody polyreactivity screen of Harvey et al. (2022).

Experiment: yeast display, Sf9 membrane polyspecificity reagent, FACS + sequencing; frameworks hold sequencing errors
How it was run: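 Nanobodies from a synthetic yeast display library (Saccharomyces cerevisiae BJ5465), induced 36–48 hours with galactose, were stained 1 hour at 4 °C with 10% biotinylated, detergent-solubilized Sf9 membrane reagent, enriched on streptavidin microbeads, then FACS-sorted. Anti-HA (expression) and streptavidin (reagent binding) fluorescence set low and high (top ~1%) gates. Polyreactivity labels come from the gate of origin. Genes were colony-PCR amplified, MiSeq 2 × 250 sequenced and filtered by CDR length.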

Sequence | polyreactivity (PSR sort gate)
QVQLVESGGGLVQAGGSLRLSCAASGRILYGYAMGWYRQAPGKERELVAGISWRGGSTYYADSVKGRFTISRDNAKNTVYLQMNSLKPEDTAVYYCAARGWPSQVPVRVFRYDYWGQGTQVTVSS | high polyreactivity
QVQLVESGGGLVQAGGSLRLSCAASGSTFINYAMGWYRQAPGKERELVAAISRSGGTTYYADSVKGRFTISRDNAKNTVYLQMNSLKPEDTAVYYCNATLGSYARTRYYYWGQGTQVTVSS | high polyreactivity
QVQLVESGGGLVQAGGSLRISCAASGIIFRLNAMGWYRQAPGKERELVAAIRRRGGSTYYADSVKGRFTISRDNAKNTVYLQMNSLKPEDTAVYYCAKDPHGSDFGYWGQGTQVTVSS | low polyreactivity
QVQLVESGGGLVQAGGSLRLSCAASGRIFYTYAMGWYRQAPGKERELVAAINYSSASTYYADSVKGRFTISRDNAKNTVYLQMNSLKPEDTAVYYCNVAYVYGSFRRRPMGYWGQGTQVTVSS | high polyreactivity
QVQLVESGGGLVQAGGSLRLSCAASGGIFRKYVMGWYRQAPGKERELVAAISTSGGSTYYADSVKGRFTISRDNAKNSVYLQMNSLKPEDTAVYYCAADILYFYGPRVFEFNYWGQGTQVTVSS | high polyreactivity
QVQLVESGGGLVQAGGSLRLSCAASGRIFDIYAMGWYRQAAGKERELVAAIRLSSGTTYYADSVKGRFTISRDNAKNTVYLQMNSLKPEDTAVYYCGADFIRPPYDYWGQGTQVTVSS | high polyreactivity
QDQLVESGGGLVQAGGSLRLSCAASGRTFIRNSMGWNRQAPGKERELVAAISGTGGSTYYADSVKGRFTISRDYAKNTVYLQMNSLKPEDTAVYYCAADRPAPGYDFWGQVTQVTVSS | low polyreactivity
QVQLVESGGGLVQAGGSLRLSCAASGFIFSPNAMGWYRQAPGKEREFVAAIRYSGTSTSYADSVKGRFTISRDNAKNTVYLQMNSLKPEDTAVDYCAAQSRQRTGMYYWGQGTQVTVSS | high polyreactivity
QVQLVESVGCLVQAGGSLRLSCAASGFIFDYYAMGRYRHGPGKERELVAGISWSGGSTYYADSVKGRFTISSDNSKNTVYLQMNSLIPEDTAVYYCNAEDSVPFYLYYYWGQGSQVTVSS | low polyreactivity
QVQLVESGGVLVQPRGSLRLICAASGSTLAGNAMGWYRQAPGKEREFVAAISWSGGRTYYADSVKGRFTISRDNAKMTVYLQMNRMKPEDTAVYYCAARRGQTRYQYYYWGQGTQVTVSS | high polyreactivity
QVQLVESGGGLVQAGGSLRLSCAPSGSIVRGYAMAWYRQAPGKERELVAAINSSGTRTYYADSVKGRFTISRDNAKNTVYFQLYSLKPEDSAVYYCAARAVSEYFVVPFYYWGQGTQVTVSS | high polyreactivity
QVQLVESGGGLVQAGGSLRLSCAPSGFTFLWYAMGWYRQAPGKERELVAGISSDGSTNADSVKGRFTISRDNAKNTVYLQMNSLKPEDTAVYYCDADYSSPWQAVQGDDYWGQGTQVNVSS | low polyreactivity
QVQLVESGGGLVQAGGSLRLSCAASGRIFRYYAMGSYRQAPGKERELVAAISRSGGSTYYADSVKGRFTISRDNAKNTVYLQMNSLKPEDTAVYSCAARLAGRGSSSSRVVRTGGYWGQGTQVTVSS | high polyreactivity
QVQLVESGGGLDQAGGSLRLSCAASGLIFKLYDMGWSRQAPGKERELVATISRGTSTYYADSVKGRFTISRDNAKNTVDLQMNSLKPEDTAVYYCNARLDYGRAFPLFKYISGMYYWGQGTQVTVSS | low polyreactivity
QVQLVESGGGLVQAGGSLRLSCAASGFTFDSYAMGRYRQAPGKERELVAAISSSGGDSTSYADSVKGRFTISRDNAKNTVYLQMNRLKPEDTAVYYCADEQFYSFIVDDTWFSGFDYWGQGTQVTVSS | low polyreactivity
QVQLVESGGGLVQAGGSLRLSCAASGRIFGLYAMGWYRQAPGKERELVARITRGGSTYADSVKGRFTISRDNAKNSVYLQMNSLKPEDTAVYYCNAEWIVRNSGDYEYWGQGTQVTVSS | high polyreactivity
QVQLVESGGGLVQAGGSLRLSCAASGSTFYIYAMGWYRPAPGKERELVAAIDWTGSTYYADSVKGRFTISRDNAKNTVNLQMNSLKPEDTAVYYCAAYYDLEDDSYRLNSWGQGTQVTVSS | high polyreactivity
QVQLVEAGGGLVQAGGRLRLSSAASGNIFIWYALGWYRQAPGKERELVAAIRWSGGGTYYADSVKGRFTISRDNAKNTVYFQMNSLKPEDTAVYYCAAESSASWYNFWGYEYWGQGTQVTVSS | high polyreactivity
QVQLQESGGVQAGGSLRLSCAASGYISRSDVKGWYRQAPGKERELVATINNGTITYYADSVKGRFTISRDNAKNTVYLQMNSLKPEDTAVHYCAVVQSDTDSLYYWGQGTQVTVSS | low polyreactivity
QVQLVESGGGLVQAGGSLRLSCAASGRIFRLYAMGWYRQAPGKERELVAAISKSGGSTYYADSVKGRFTFSRDNAKNTVYLQMNSLKPEDTAVYYCAADYRTHGGYEGTFDYWGQGTQVTVSS | low polyreactivity
QDQLVESGGGLVQAGGSLRLICAASGYTFGHYVMGWYRQAPGKERELVAAITLSGGGTYYADSVKGRFTISRDNAKNTVYLQMNCLKPEDTAVYYCAAVGGEHAKKTYSRYKVDYWGQGTQVTVSS | low polyreactivity
QVQLVESGGGLVQAGGSLRLSCAASGRNIRRYTMGLYIQAPGKEREFVAAITWSGSSTNYADSVKGRFTISRDNAKNTVYLQMNSLKPEDTAVYYCAAENRRRRDDYWGQGTQVTVSS | high polyreactivity

Sequence | polyreactivity (PSR sort gate)
QVQLVESGGGLVKAGGSLRLSCAASGSIFTRNAMGWYRQAPGKERELVAAIRSRGGSTYYADSVKGRFTISRDNAKNTVYLQMNSLKPEDNAVYYCAKKDNTYIFDYWGQGTQVTVSS | low polyreactivity
QVQLVESGGGLVQAGGSLRLSCAASGTIFDDNAMGWYRHAPGKERELVAAISANDGSTYYADSVKGRFTISRDNAKNTVYLQMNSLKQEDTAVYYCAVLRVETVDIWEYDYWGQGTQVTVTS | low polyreactivity
QVQLVESGGGLVQAGGSLRLSCAASGSIFLYNAMGWYRQAPGKERELVASISSGGITDYADSVKGRFTISRDNAKNTVYLQMNSLKPEDTAVYYCAATYSVYLDYAGGGPLYNHWGQGTQVTVSS | low polyreactivity
QVQLVESGGGLVQAGGSLRLSCAASGRILFGYAMGWYRQAPGKERELVADITSTGSTNYADSVKGRFTISRDNAKNTVYLQMNSLNPEDTAVYYCNARRESYYQRYRVDYWGQGTQVTVSS | low polyreactivity
QVQLVESGGGLVQAGGSLRLSCAASGRIFWHNAMGWYRQAPGKERELVAAITGGGSTYYADSVKGRFTISRDNAKNTVYLQMNSLKPEDTAVYYCATLGSLRYYWPGYDYWGQGTQGTVSS | high polyreactivity
QVQLVESGGGLVQAGGSLRLSCAASGSIFVPYTMGWYRQAPGKERELVASISYSGGTTYYADSVKGRFTISRDNAKNTVYLQMNSLKPEDTAVYYCAAQTLDGYDYWGQGTQVTVSS | low polyreactivity
QDQLVESGGGLVQAGGSLRLSCAASGRNFSYYAMGWYRQAPGKERELVAAIRWSGGRTYYADSVKGRFTISRDNAKNTVYLQMNSLKPEDTAVYYCAAEGAYRLAYDSWGQGTQVTVSS | high polyreactivity
QVQLVETGGGLVQAGGSLRLSCAASGRTFHRYAVGWYRQAPGKVRELVAAISFSGGSTYYADSVKGRFTISRDNAKNTVYLQMNSLKPEDTAVYYCAPRAVWSSWGRRYDSWGEGTQVTVSS | high polyreactivity
QVQLVESGGGLVQAGGSLRLSCAASGSTFGLYAMGWYRQAPGKERELVADITWSGGSTYYADSVKGRFTISRDNAKNTVYLQMNSLKPEDTAVYYCAARYPWVYYDFDYWGQGTQVTVSS | low polyreactivity
QVQLVESGGGLVQAGGSLRLICAASGLTYVSYAMGWYRQAPGKERELVAGITSGGGTTDYADSVKGRFTISRDNAKTTVYLQMNSLTPEDTAVYDCNARSVYDGFWYNYWGQGTQVTVSS | high polyreactivity
QVQLVESGGGLVHAGGSLRISCAASGRTFSRNAMGWYRQAPGKERELVATISRRGGSTNYADSVKGRFTISRDYAKNTVYLQMNSLKPDDTAVYYCAAGYRVRDDKVYGIVRPMDYWGQGTQVTVSS | high polyreactivity
QVQLVESGGGLVQAGGSLRLSCAASGRTFYRNPMGWYRQAPGKEWELVAGITRCGRTYYADSVKGRFRISRDNAKNTVYLQMNCLKPEDTAVYYCNKTGGNGNDYWGQGTQVTVSS | low polyreactivity
QVQLVESGGGLVQAGGSLRLSCAASGSIFSANAMGWYRQAPGKERELVAAISRSGGRTYYADSVKGRFTISRDNAKNTVYLQMNSLKPEDTAVYYCAADKSRYSVGYDYWGQGTQVTVSS | high polyreactivity
QVQHVESGGGLVQAGGSLRLSCAASGFTFWRYAMGWYRQEPGKERELVAGISSGGSTNYADSVKGRFTISRDNAKNTVYLQMNSLKPEDTAVYYCAADNSVGSYDYWGQGSQVTVSS | low polyreactivity
QVQLVESGGGLVQGGGSLRLSCAASGLILRKYAMGWYRQAPGKEREFVAAITQTGSRTYYADSVKGRFTISRDNAKNTVYLQMNSLKPEDTAVYYCNAVNYRSSRDSGYWGQGTQVTVSS | high polyreactivity
QVQLVESGGGLVQAGGSLRLSCAASGSIFDVNTMGWYRQAPGKERELVAAITNGYRTNYADSVKGRFTISRDNAKNTVYLQMNILKPEDTSVYYCNTDQGTTSDYCFWGQGTQVTVSS | low polyreactivity
QVQIVESGGGLVQAGGSLRLSCDASGFIFYYYAMGWYRQAPGKERELVATITSGGGSTYYADSVKGRFTISRDNAKNTVYLQMNSLKPEDTAVYYCAAKGPYYKSSRTGDYWGQGTQVTVSS | low polyreactivity
QVQLVESGGGLVQAGGSLRLSCAASGFTFVYYAMGWYRQAPGKERELVAAISRGGSTYYADSVKGRFTISRDNAKNTVYLQMNSLKPEDTAVYYCNAKKSGHYVSYPAYDYWGQGTQVTVSS | low polyreactivity
QVQHVESRGGIVQAGGSLRLSCAASGFTFAYYAMGRYRQAPGKERELVAAINYSGGSTYYADSVKGRFTISRDNAKNTVYLQMNSLKPEDTAVYYCATEYYRYDGSSYDYWGQGTQVTVSS | high polyreactivity
QVQLVESGGGLVQAGGSLRLSCAASGFIFATNPMGWYRQAPGKERELVAASSTYYADSVKGRFTISRDNAKNTVYLQMNSLKPEDTAVYYCNADRDSYIGFVDWAGEYWGQGTQVTVSS | low polyreactivity
QVQLGESGGGLVQAGGSLRLSCAASGGILGYNAMGWYRQAPGKERELVATINWSGGSTYADSVKGRFTISRDNAKNTVYLQRNSLKPEDTADSYCNAVRKYWRQGTQVTVSS | low polyreactivity
